Reference: publication PMC5472440

Columns and labels:
[1] = system: hIno80CTD (human); assay: MST; conditions: Hill coefficient 1.8 +/- 0.2, MST: 25 mM HEPES pH 8.0, 50 mM NaCl, 1 mM TCEP, 10% glycerol, 0.01% Tween-20, 0.1 mg/mL BSA, 25 C, EMSA: 25 mM HEPES pH 8.0, 50 mM NaCl, 0.5 mM …
[2] = system: hIno80CTD (human); assay: EMSA; conditions: Kd apparent, 50 nM DNA, MST: 25 mM HEPES pH 8.0, 50 mM NaCl, 1 mM TCEP, 10% glycerol, 0.01% Tween-20, 0.1 mg/mL BSA, 25 C, EMSA: 25 mM HEPES pH 8.0, 50 mM NaCl, 0.5 mM …

Work on 50 bp duplex DNA yielded a K half [1] of 1000 nM and a Kd [2] of 1 µM.
